In US20060039918A1 (University of California, published 2006):
[ ]: non-standard residue; d: D form. The star is where a group is joined. Biotin = O=C1N[C@H]2[C@H](CS[C@H]2CCCCC(=O)*)N1; code J = not defined here

Biological target: T1, HLA DRB1*0401 molecules (biotinylated recombinant HLA-DR4) (human)
T1 construct: Recombinant and biotinylated; also called biotinylated recombinant MHC
Test: loading of biotinylated recombinant HLA-DR4 with peptide for aAPCs and tetramers

Row | Binder | binding result
1 | Biotin-QKRAAYDQYGHAAFE-NH2 (SMILES C[C@H](NC(=O)[C@H](C)NC(=O)[C@H](Cc1c[nH]cn1)NC(=O)CNC(=O)[C@H](Cc1ccc(O)cc1)NC(=O)[C@H](CCC(N)=O)NC(=O)[C@H](CC(=O)O)NC(=O)[C@H](Cc1ccc(O)cc1)NC(=O)[C@H](C)NC(=O)[C@H](C)NC(=O)[C@H](CCCNC(=N)N)NC(=O)[C@H](CCCCN)NC(=O)[C@H](CCC(N)=O)NC(=O)CCCC[C@@H]1SC[C@@H]2NC(=O)N[C@@H]21)C(=O)N[C@@H](Cc1ccccc1)C(=O)N[C@@H](CCC(=O)O)C(N)=O, Synthetic peptide) [dnaJP1 peptide (QKRAAYDQYGHAAFE)] | binds
2 | Biotin-[code U]A[code J]AAAATLKAA-NH2 (reading uncertain, Synthetic control peptide used to set the background in the T cell capture assay; also called negative control PADRE (-)) [PADRE (-) peptide (UAJAAAATLKAA)] | binds
